In patent publication US20220348620A1 (WISTAR INSTITUTE OF ANATOMY AND BIOLOGY, published 2022):
Where a chain is given by its changes, count along the chain named. Names may count otherwise. Blank lines part the entries; values can stand above or below the binder they belong to.

How the values were obtained:
[1] = biological target: Dynamin-Related Protein-1 (Drp1), endogenous in PC3 cells (human, UniProt O00429 1-736, limits assumed); experiment: co-immunoprecipitation with anti-Flag from PC3 cells, Western blot
[2] = biological target: T1, hexokinase-II (HK-II), endogenous in PC3 cells (human, UniProt P52789 1-917); experiment: affinity chromatography of PC3 cell extracts on beads-coupled MFF peptide #8, Western blot of bound proteins
T1 sequence (looked up): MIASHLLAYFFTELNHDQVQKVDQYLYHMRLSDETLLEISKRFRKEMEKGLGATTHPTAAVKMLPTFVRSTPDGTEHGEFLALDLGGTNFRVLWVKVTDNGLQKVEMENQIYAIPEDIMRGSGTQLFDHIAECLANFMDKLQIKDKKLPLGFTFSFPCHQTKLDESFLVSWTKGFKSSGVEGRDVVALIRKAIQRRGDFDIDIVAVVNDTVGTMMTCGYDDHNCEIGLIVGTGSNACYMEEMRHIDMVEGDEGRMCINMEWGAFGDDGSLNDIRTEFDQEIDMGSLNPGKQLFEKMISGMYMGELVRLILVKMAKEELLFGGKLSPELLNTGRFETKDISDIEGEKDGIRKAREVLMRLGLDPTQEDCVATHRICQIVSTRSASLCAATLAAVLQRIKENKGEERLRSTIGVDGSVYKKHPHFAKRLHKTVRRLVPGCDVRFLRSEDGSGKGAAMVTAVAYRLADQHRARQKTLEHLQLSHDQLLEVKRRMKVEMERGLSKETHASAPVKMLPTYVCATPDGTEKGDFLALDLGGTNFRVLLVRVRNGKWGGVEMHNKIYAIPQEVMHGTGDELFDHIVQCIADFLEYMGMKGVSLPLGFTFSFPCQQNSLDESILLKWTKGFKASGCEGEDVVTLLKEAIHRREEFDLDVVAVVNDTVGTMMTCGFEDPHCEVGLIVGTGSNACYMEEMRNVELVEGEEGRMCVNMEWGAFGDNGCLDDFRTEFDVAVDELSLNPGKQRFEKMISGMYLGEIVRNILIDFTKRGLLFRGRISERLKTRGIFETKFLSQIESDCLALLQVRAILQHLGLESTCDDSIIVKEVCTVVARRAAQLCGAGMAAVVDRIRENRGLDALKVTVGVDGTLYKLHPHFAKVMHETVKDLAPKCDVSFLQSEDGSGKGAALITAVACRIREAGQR

[3] = biological target: T2, VDAC1 (endogenous, in PC3 cell extracts) (human, UniProt P21796 2-283); experiment: as above
T2 construct: also called voltage-dependent anion channel-1

[4] = biological target: T3, hexokinase-I (HK-I), endogenous in PC3 cells (human, UniProt P19367 1-917); experiment: as above
T3 sequence (looked up): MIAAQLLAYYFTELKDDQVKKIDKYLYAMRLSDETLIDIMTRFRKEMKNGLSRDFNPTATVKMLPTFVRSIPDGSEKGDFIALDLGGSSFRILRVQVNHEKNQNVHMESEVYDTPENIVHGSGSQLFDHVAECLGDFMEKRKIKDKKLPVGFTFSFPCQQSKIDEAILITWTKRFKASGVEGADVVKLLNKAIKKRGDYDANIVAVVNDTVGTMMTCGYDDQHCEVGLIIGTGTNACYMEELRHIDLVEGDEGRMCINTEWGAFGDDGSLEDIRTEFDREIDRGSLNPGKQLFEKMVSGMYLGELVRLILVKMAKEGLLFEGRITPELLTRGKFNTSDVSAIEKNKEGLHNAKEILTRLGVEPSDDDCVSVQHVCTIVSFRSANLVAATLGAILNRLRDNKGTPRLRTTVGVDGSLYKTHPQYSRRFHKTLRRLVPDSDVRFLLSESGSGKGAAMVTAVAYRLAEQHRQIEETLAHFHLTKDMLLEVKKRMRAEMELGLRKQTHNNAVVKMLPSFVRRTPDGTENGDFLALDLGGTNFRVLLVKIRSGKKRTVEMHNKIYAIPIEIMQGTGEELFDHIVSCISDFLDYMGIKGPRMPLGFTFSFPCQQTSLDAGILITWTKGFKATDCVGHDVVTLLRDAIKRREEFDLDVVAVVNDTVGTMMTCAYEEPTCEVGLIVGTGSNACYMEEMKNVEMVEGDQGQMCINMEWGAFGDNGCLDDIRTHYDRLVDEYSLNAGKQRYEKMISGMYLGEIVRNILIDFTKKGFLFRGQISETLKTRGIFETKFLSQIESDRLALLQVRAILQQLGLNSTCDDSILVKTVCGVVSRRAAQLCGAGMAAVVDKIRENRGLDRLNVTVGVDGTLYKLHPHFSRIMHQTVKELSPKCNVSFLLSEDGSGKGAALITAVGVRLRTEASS

[5] = biological target: T4, recombinant full length human VDAC1 (hVDAC1) (human, UniProt P21796 1-283); experiment: isothermal titration calorimetry, scrambled peptide injected into human recombinant VDAC
T4 construct: domain: full length; also called human recombinant VDAC; recombinant VDAC1
Method: (§1) Isothermal titration calorimetry (ITC). ITC experiments were performed using MlcroCal iTC200 (Malvern). Purified full-length hVDAC1 was buffer-exchanged into 25 mM HEPES-KOH (pH 7.5), 0.1 M KCl, 5% glycerol, 2% n-Octylglucoside, and 1 mM TCEP (ITC buffer). […] The ITC binding experiments were carried out at 20° C. Peptides at a concentration of 100 μM were added by 2.47 μl injections to 10 μM hVDAC1. The data collected was processed in MicroCal Origin software (Malvern).

[6] = biological target: T4, recombinant full length human VDAC1 …; experiment: isothermal titration calorimetry, peptide injected into human recombinant VDAC
Method: as §1

[7] = biological target: T4, recombinant full length human VDAC1 …; experiment: isothermal titration calorimetry, 100 µM peptide injected into 10 µM hVDAC1, 20 °C
Method: as §1

[8] = biological target: T2, VDAC1 (endogenous, in PC3 cell extracts); experiment: co-immunoprecipitation with anti-Flag from PC3 cells, Western blot
[9] = biological target: T3, hexokinase-I (HK-I), endogenous in PC3 …; experiment: as above
[10] = biological target: T1, hexokinase-II (HK-II), endogenous in …; experiment: co-immunoprecipitation with anti-Flag from transfected PC3 cells, Western blot and densitometry (AU)

T4 sequence (P21796 whole entry): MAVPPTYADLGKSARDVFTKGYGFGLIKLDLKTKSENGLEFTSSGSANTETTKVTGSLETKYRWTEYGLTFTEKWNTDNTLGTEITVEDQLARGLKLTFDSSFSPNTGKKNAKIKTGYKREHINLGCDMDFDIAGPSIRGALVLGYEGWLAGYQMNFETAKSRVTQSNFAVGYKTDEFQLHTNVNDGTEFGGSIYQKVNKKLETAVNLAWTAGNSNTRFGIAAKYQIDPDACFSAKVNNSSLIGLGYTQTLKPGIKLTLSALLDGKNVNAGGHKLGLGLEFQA
T2 sequence (P21796 2-283 limits assumed): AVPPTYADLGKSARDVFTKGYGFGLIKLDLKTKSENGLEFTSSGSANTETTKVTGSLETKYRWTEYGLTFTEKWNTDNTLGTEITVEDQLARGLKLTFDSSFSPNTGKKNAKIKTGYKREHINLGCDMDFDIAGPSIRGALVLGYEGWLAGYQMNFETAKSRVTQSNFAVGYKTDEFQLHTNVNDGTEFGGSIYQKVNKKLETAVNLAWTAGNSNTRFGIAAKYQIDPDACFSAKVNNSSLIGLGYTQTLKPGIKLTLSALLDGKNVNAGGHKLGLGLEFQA
Chain of Dynamin-Related Protein-1 (Drp1), endogenous in PC3 cells (O00429 whole entry): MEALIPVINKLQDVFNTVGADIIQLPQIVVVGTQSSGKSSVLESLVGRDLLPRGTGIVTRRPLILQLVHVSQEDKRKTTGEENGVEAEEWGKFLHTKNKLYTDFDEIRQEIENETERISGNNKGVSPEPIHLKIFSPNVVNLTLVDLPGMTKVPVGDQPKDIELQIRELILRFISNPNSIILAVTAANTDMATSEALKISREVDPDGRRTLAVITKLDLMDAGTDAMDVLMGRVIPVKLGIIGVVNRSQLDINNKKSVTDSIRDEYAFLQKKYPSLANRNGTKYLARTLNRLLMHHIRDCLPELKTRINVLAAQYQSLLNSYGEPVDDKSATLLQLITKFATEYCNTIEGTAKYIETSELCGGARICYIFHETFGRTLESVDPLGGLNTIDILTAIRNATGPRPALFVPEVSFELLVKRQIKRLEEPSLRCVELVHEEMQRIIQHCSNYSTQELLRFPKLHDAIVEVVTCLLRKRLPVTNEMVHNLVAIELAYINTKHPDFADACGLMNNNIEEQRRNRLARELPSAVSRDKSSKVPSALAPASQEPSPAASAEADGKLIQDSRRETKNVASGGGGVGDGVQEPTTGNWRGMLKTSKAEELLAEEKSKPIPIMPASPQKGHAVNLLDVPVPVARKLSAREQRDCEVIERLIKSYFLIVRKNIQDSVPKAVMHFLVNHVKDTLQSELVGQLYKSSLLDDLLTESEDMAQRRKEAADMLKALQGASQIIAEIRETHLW

binding result [1]: no binding
B1: Flag-MFF2 (other, human, UniProt Q9GZY8-2 1-291, looked up)
chain: MAEISRIQYEMEYTEGISQRMRVPEKLKVAPPNADLEQGFQEGVPNASVIMQVPERIVVAGNNEDVSFSRPADLDLIQSTPFKPLALKTPPRVLTLSERPLDFLDLERPPTTPQNEEIRAVGRLKRERSMSENAVRQNGQLVRNDSLVTPSPQQARVCPPHMLPEDGANLSSARGILSLIQSSTRRAYQQILDVLDENRRPVLRGGSAAATSNPHHDNVRYGISNIDTTIEGTSDDLTVVDAASLRRQIIKLNRRLQLLEEENKERAKREMVMYSITVAFWLLNSWLWFRR
notes: not shown: Flag tag

binding result [5]: no binding (tested: molar ratio about 2)
B2: scrambled variant of MFF peptide 8#11 (peptide)
peptide: SSQLRYLARSQRITIQLIAGS
notes: Control peptide in ITC; also called MFF scrambled peptide

binding result [8]: no binding | binding result [9]: no binding
B4: Flag-MFF5 (other, human, UniProt Q9GZY8-5 1-238, looked up)
chain: MAEISRIQYEMEYTEGISQRMRVPEKLKVAPPNADLEQGFQEGVPNASVIMQVPERIVVAGNNEDVSFSRPADLDLIQSTPFKPLALKTPPRVLTLSERPLDFLDLERPPTTPQNEEIRAVGRLKRERSMSENAVRQNGQLVRNDSLPVLRGGSAAATSNPHHDNVRYGISNIDTTIEGTSDDLTVVDAASLRRQIIKLNRRLQLLEEENKERAKREMVMYSITVAFWLLNSWLWFRR
notes: also called Flag-MIFFS (misprint in legend); not shown: Flag tag

The next lines start with the binder.

Binder: DGANLSSARGILSLIQSSTRRAYQQILDVL (also called MFF #8) [MFF peptide #8 (Asp217-Leu246 of MFF1)]
binding result [2]: binds | binding result [3]: binds | binding result [4]: binds

B3: MFF peptide #8-11 (Ser223-Leu243 of MFF1), wild type (peptide)
peptide: SARGILSLIQSSTRRAYQQIL
notes: Plain synthetic peptide (not the cell-permeable form) as used in ITC; also called WT MFF peptide #8-11; MFF (L) peptide #8-11
Kd [6]: 12 µM | Kd [7]: ~12 µM

B5: Flag-MFF1 Q241A (other, not shown: small tags and cut ends)
chain: MSKGTSSDTSLGRVSRAAFPSPTAAEMAEISRIQYEMEYTEGISQRMRVPEKLKVAPPNADLEQGFQEGVPNASVIMQVPERIVVAGNNEDVSFSRPADLDLIQSTPFKPLALKTPPRVLTLSERPLDFLDLERPPTTPQNEEIRAVGRLKRERSMSENAVRQNGQLVRNDSLWHRSDSAPRNKISRFQAPISAPEYTVTPSPQQARVCPPHMLPEDGANLSSARGILSLIQSSTRRAYQAILDVLDENRRPVLRGGSAAATSNPHHDNVRYGISNIDTTIEGTSDDLTVVDAASLRRQIIKLNRRLQLLEEENKERAKREMVMYSITVAFWLLNSWLWFRR
notes: also called mutant Flag-MFF Q241A
binding result [10]: binds

B6: Flag-MFF1 R225D (other, not shown: small tags and cut ends)
chain: B5 chain with R225D, A241Q
notes: also called mutant Flag-MFF R225D
binding result [10]: binds

B7: Flag-MFF1 R236D (other, not shown: small tags and cut ends)
chain: B5 chain with R236D, A241Q
notes: also called mutant Flag-MFF R236D
binding result [10]: binds
